Measurements from patent US20210252057A1 (published 2021).

How the values were obtained:
[1] = target: T1, Merkel cell polyomavirus (MCPyV) T antigen (Large-T antigen) peptide on HLA-A*02:01 (human); assay: multimer staining
T1 peptide: KLLEIAPNC

[2] = target: T2, MCPyV T antigen homolog (C9A of …) peptide on HLA-A*02:01 (human); assay: cytokine release
T2 peptide: KLLEIAPNA

[3] = target: T3, peptide on HLA-A*02:01 (human); assay: cytokine release
T3 peptide: KLLEIAANC

[4] = target: T4, MCPyV Large-T sequence variant peptide on HLA-A*02:01 (human); assay: cytokine release
T4 peptide: KLLEISPNC

[5] = target: T5, peptide on HLA-A*02:01 (human); assay: cytokine release
T5 peptide: KALEIAPNC

[6] = target: T6, MCPyV Large-T sequence variant peptide on HLA-A*02:01 (human); assay: cytokine release
T6 peptide: KLLEITPNC

[7] = target: T1, Merkel cell polyomavirus (MCPyV) T …; assay: killing
[8] = target: T7, peptide on HLA-A*02:01 (human); assay: cytokine release
T7 peptide: ALLEIAPNC

Measured: binding result

B1: TCR1007 (TCR, V domains shown)
Valpha: QQQVKQSPQSLIVQKGGISIINCAYENTAFDYFPWYQQFPGKGPALLIAIRPDVSEKKEGRFTISFNKSAKQFSLHIMDSQPGDSATYFCAVPNTGNQFYFGTGTSLTVIP
Vbeta: GAGVSQSPRYKVAKRGQDVALRCDPISGHVSLFWYQQALGQGPEFLTYFQNEAQLDKSGLPSDRFFAERPEGSVSTLKIQRTQQEDSAVYLCASSLIAGLSYEQYFGPGTRLTVT
not listed: [7] | [8]
recognises: all other assays above

B2: TCR1072 (TCR, V domains shown)
Valpha: RKEVEQDPGPFNVPEGATVAFNCTYSNSASQSFFWYRQDCRKEPKLLMSVYSSGNEDGRFTAQLNRASQYISLLIRDSKLSDSATYLCVVTGTGGFKTIFGAGTRLFVKA
Vbeta: GEEVAQTPKHLVRGEGQKAKLYCAPIKGHSYVFWYQQVLKNEFKFLISFQNENVFDETGMPKERFSAKCLPNSPCSLEIQATKLEDSAVYFCASSSMSIAAGNTGELFFGEGSRLTVL
recognises: [7] | [2] | [8]
